Assay [1] concerns the target T1, human folate receptor alpha (hFRα), recombinant protein (human, UniProt P15328 25-233).
T1 construct: Bought recombinant proteins (His-tagged, or biotinylated via Avi-tag, e.g. AcroBiosystems FO1-H82E2, F01-H52H1); also called hFOLR1; huFOLR1
In words: ELISA, periplasmic extract. From the text: (§1) From the lymphocytes of each llama a separate VHH library was constructed to select and screen for the presence of antigen-specific VHHs. To this end, total RNA from peripheral blood lymphocytes was used as template for first strand cDNA synthesis with an oligo ^{∘}dT) primer. Using this cDNA, the VHH encoding sequences were amplified by PCR, digested with PstI and NotI, cloned into the PstI and NotI sites of the phagemid vector pMECS and transformed into E. coli to generate VHH libraries. To enrich these libraries for FRα ^{∘}or FOLR1, as used interchangeably herein)-specific VHHs, a combinatorial panning approach on recombinant human and mouse FOLR1 was used followed by random selection and screening of clones by ELISA for the presence of antigen-specific VHHs in their periplasmic extracts ^{∘}PEs). In order to gauge the cross-reactivity for human and mouse FOLR1, each clone was tested on both antigens.
(§2) After panning of core76/77 on human and mouse folate receptor alpha ^{∘}FRα), […] were randomly selected from the second and third rounds and analyzed by ELISA on both human and mouse FRα for the presence of FRα-specific VHHs in their periplasmic extracts ^{∘}PE). This led to the identification of 98 hits. For these 98 hits, the off-rate ^{∘}koff) in the PE was determined by biolayer interferometry ^{∘}BLI) on both mouse and human FRα that was directly immobilized onto AR2G biosensors. The off-rates were calculated using a 1:1 binding model. […] Abbreviations: SE: standard error.

For assay [2], the target named is T2, mouse folate receptor alpha (mFRα), recombinant protein (mouse, UniProt P35846 25-232).
T2 construct: Bought recombinant proteins (e.g. biotinylated, Acro Biosystems FO1-M82E9); also called mFOLR1; Ms FOLR1
T2 sequence (P35846 25-232 limits assumed): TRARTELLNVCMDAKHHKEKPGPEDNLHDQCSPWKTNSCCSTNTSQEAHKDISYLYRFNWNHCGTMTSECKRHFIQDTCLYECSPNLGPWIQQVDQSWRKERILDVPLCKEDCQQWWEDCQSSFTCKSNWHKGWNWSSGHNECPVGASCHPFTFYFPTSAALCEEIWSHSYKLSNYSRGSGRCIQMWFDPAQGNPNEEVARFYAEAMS
In words: ELISA, periplasmic extract.
Excerpt: as §1, §2
(In general: ELISA stands for enzyme-linked immunosorbent assay.)

In assay [3] the target is T1, human folate receptor alpha (hFRα), …. The assay is described as follows: BLI, periplasmic extract, FRα on AR2G biosensors. The method, then:
as §2
For orientation: In BLI a coated tip is dipped into the sample, and binding shifts an interference pattern.

Assay [4] deals with T2, mouse folate receptor alpha (mFRα), …. The assay is described as follows: BLI, periplasmic extract, FRα on AR2G biosensors. As to the method: as §2
The target of the next assay is T3, human FRα E140Q (human, UniProt P15328 25-234).
T3 construct: The entry is the mutant itself
T3 sequence (P15328 25-234 E140Q limits assumed): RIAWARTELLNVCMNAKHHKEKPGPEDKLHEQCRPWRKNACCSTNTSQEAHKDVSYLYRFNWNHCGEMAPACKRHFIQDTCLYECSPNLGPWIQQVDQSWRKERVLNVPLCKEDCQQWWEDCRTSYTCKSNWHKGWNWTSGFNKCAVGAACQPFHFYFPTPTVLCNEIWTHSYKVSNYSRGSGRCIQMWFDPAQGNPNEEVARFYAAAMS
In words: flow cytometry, transfected HEK293T cells (data not shown). A digest of the protocol:
(§3)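 HEK293T cells were transfected with single-residue mutants of human folate receptor alpha. Binding was measured by flow cytometry with each VHH at 200 nM. VHHs were detected with a mouse anti-His tag antibody followed by an anti-mouse phycoerythrin antibody. Untransfected cells served as negative control.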
(A flow cytometer gives signals particle by particle.)

The next assay deals with T4, human FRα R147H (human, UniProt P15328 25-234).
T4 construct: The entry is the mutant itself
T4 sequence (P15328 25-234 R147H limits assumed): as the sequence (P15328 25-234 E140Q limits assumed) above, with Q116E, R123H counted along it
Described as above. A digest of the protocol:
as §3

Another assay has as its target T5, human FRα Y150H (human, UniProt P15328 25-234).
T5 construct: The entry is the mutant itself
The assay is described as above. A digest of the protocol:
as §3

The target in assay [5] is T2, mouse folate receptor alpha (mFRα), …. In words: BLI tandem binning on mouse FRα; competitor (1st association) 2MFR32. The source says: (§4) VHHs that share high sequence identity in the CDR3 region, a VHH family, are derived from the same B-cell lineage and diverged from each other due to somatic hypermutation or affinity maturation. Typically, VHHs from the same family recognize the same epitope on the target, but may differ in other characteristics ^{∘}De Genst et al 2006 PNAS 103:4586-4591; De Gents et al 2005 J Biol Chem 280:14114-14121). To study whether the VHHs from the different families bound different epitopes, epitope binning was performed using a tandem binding approach in BLI. One VHH from each family was allowed to bind to mouse FRα on the biosensor, followed by binding of the second VHH ^{∘}Table 4).
(§5) Competition between VHHs from different complementarity determining region ^{∘}CDR) 3 families was assessed in a tandem binding assay using biolayer interferometry ^{∘}BLI). Streptavidin biosensors were loaded with biotinylated mouse FRα ^{∘}Acro Biosystems, Cat.nr. FO1-M82E9), followed by binding of anti-FRα VHHs ^{∘}VHH in first association). The biosensors were then transferred to a solution containing a second VHH mixed 1:1 with the first VHH ^{∘}VHH in second association). Using the FortéBio Data Analysis Software the absolute additional binding signal for the second association on top of the first association was calculated. The data were normalized per VHH in first association using the following formula: ^{∘}signal-self)/^{∘}maximum-self) with self being the value of the VHH in first association in combination with the same VHH in second association.

Assay [6] has the same target. In words: BLI tandem binning on mouse FRα; competitor (1st association) 3MFR60.
Excerpt: as §4, §5

In assay [7] the target is T1, human folate receptor alpha (hFRα), …. In words: ELISA on recombinant human FOLR1, cMyc tag detection, normalised binding, non-linear fit. The method, then:
Data were normalized and technical replicates were plotted as mean±SD. Data were fitted by non-linear regression and the half-maximal effective concentration ^{∘}EC50) was calculated using GraphPad Prism 9 software. ^{∘}FIG. 1C and FIG. 1D) Binding affinity determination of anti-FOLR1 VHHs for native FOLR1. Mouse ^{∘}FIG. 1C) or human FOLR1 FIG. 1D) was overexpressed on HEK293T cells and binding of the anti-FOLR1 VHHs was assessed using flow cytometry. The mean fluorescence intensity ^{∘}MFI) of the phycoerythrin signal was plotted for each VHH concentration. Data were fitted by non-linear regression using GraphPad Prism 9 software. ^{∘}FIG. 1E) Determination of the competition of representative family members with folic acid ^{∘}FA) using ELISA. Mouse FOLR1 was coated on the plate and was pre-incubated with or without 100 μM FA before adding the VHHs. Data were fitted by non-linear regression using GraphPad Prism 9 software.
In a first step, binding affinity and cross-reactivity of the purified VHHs to human and mouse FRα was assessed by ELISA, using detection of the cMyc tag ^{∘}FIG. 1A-B). […] 2HFO19 ^{∘}family 1) was the best binder of all tested VHHs to both mouse and human FRα with an EC₅₀ of 0.1 nM and 0.4 nM respectively ^{∘}FIG. 1A-B).

T5 sequence (P15328 25-234 Y150H limits assumed): as the sequence (P15328 25-234 E140Q limits assumed) above, with Q116E, Y126H counted along it
T1 sequence (P15328 25-233 limits assumed): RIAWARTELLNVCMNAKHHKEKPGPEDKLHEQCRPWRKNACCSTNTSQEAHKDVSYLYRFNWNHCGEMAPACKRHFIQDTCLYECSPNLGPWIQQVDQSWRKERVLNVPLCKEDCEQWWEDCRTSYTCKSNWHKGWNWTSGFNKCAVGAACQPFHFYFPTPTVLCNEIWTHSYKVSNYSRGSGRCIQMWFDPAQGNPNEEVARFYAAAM

B1: VHH 2HFO19 (family 1) (VHH)
VHH: QVQLQESGGGLVQPGGSLRVSCAASGFPFSTVYMSWVRQAPGKGLEWVSGINNDGGVIDYADSVKGRFTISRDNAKNTLYLQLNSLKPEDTALYFCARGRSFVATLSSSLRGQGTQVTVSS
notes: also called Nb19
As a reminder, the koff is the rate constant with which the complex falls apart. With B1, the “PE-ELISA (ratio to uncoated well)” value amounted to 13.8 in [1] and 14.2 in [2]. The koff in assay [3] was 0.013 s⁻¹; in [4], 0.00279 s⁻¹. The binding result with human FRα E140Q, with human FRα R147H and with human FRα Y150H was “binds” in each case. In addition, the “normalized additional binding in 2nd association” value (“normalized additional binding” below) is 100% in assay [5] and -7% in assay [6].

B2: VHH 2HFO42 (family 3) (VHH)
VHH: QVQLQESGGGLVQAGGSLRLSCAASGSGFSGMIMGWYRQVPGKQRELVATVTSHGTTNYADSVKGRFTISRDNAKNTVLLQMNSLKPEDTAVYYCNAHFPGIYWGKGTQVTVSS
notes: also called 2HF042; Nb42
Broadly, the EC50 is the concentration needed to bring the measured effect to its halfway point. In the case of B2, the results for the “PE-ELISA (ratio to uncoated well)” value in [1] and in [2] were 11.7 and 12.2, respectively. Also, the dissociation rate constant (koff) in assay [3] is 0.0266 s⁻¹; in assay [4], 0.00881 s⁻¹. Also, the binding result in the assay with human FRα E140Q, with human FRα R147H and with human FRα Y150H was “binds” each time. In addition, the entries for the “normalized additional binding” value in assay [5] and in [6] were 41% and -2%, respectively. Also, the 50% effective concentration (EC50) in assay [7] was 10.4 nM.

B3: VHH 3MFR60 (family 10) (VHH)
VHH: QVQLQESGGGLVQAGGSLRVSCAASGIIFSMNGMGWFRQAPGKQRELVASITSGGSTKYADSVKGRFTISRDNAKNTVYLQMNSLKPEDTAVYYCNIQFGSRWSTYWGQGTQVTVSS
B3: the “PE-ELISA (ratio to uncoated well)” value in assay [1] came out at 4.8; in assay [2], 4.9. Moreover, the koff stood at 0.0449 s⁻¹ in assay [3] and 0.00287 s⁻¹ in assay [4]. Besides, the binding result in the assay with human FRα E140Q, with human FRα R147H and with human FRα Y150H was “binds” throughout. For the same molecule, the “normalized additional binding” value is 75% in assay [5] and 0% in [6]. Also, the half-maximal effective concentration (EC50) in assay [7] was 11.1 nM.

Values taken from US20250304677A1 (VIB VZW, published 2025).
